Test system: Escherichia coli TOP10
Experiment: shrunken log2 fold change of peptide-encoding DNA abundance (4.5 h post-induction vs induction); higher = less antimicrobial activity (less host growth inhibition)
Details: time post-induction: 4.5 h; library: site-saturation at positions 5, 18, 19, 20
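Further: peptides expressed intracellularly from a pBAD plasmid library in pooled LB shake-flask culture, induced with 0.3% L-arabinose, DNA abundance read by NGS, three biological replicates, DESeq2 with apeglm shrinkage.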

Sequence	shrunken log2 fold change
RRIRFRPPRLPRPRPRPGPMPRP	0.104
RRIRIRPPRLPRPRPRPEGSPRP	0.0664
RRIRYRPPRLPRPRPRPKLIPRP	-0.775
RRIRGRPPRLPRPRPRPYWTPRP	-0.0522
RRIRMRPPRLPRPRPRPFRWPRP	-0.0454
RRIRMRPPRLPRPRPRPEHFPRP	0.0315
RRIRQRPPRLPRPRPRPKHTPRP	-0.224
RRIRCRPPRLPRPRPRPVHDPRP	0.141
RRIRMRPPRLPRPRPRPKCQPRP	1.33
RRIRARPPRLPRPRPRPALRPRP	0.363
RRIRCRPPRLPRPRPRPMDFPRP	-0.151
RRIRQRPPRLPRPRPRPFFPPRP	-0.0441
RRIRNRPPRLPRPRPRPNVVPRP	-0.122
RRIRIRPPRLPRPRPRPLPNPRP	-0.217
RRIRMRPPRLPRPRPRPDHAPRP	0.0825
RRIRARPPRLPRPRPRPPFVPRP	1.42
RRIRNRPPRLPRPRPRPRYFPRP	-0.342
RRIRARPPRLPRPRPRPAVGPRP	0.512
RRIRFRPPRLPRPRPRPMPVPRP	-0.0124
RRIRRRPPRLPRPRPRPRMLPRP	0.486
RRIRARPPRLPRPRPRPTWQPRP	0.4
RRIRWRPPRLPRPRPRPPVQPRP	0.952
RRIRQRPPRLPRPRPRPPFSPRP	-0.0357

Sequence	shrunken log2 fold change
RRIRCRPPRLPRPRPRPGLQPRP	0.109
RRIRIRPPRLPRPRPRPEMNPRP	-0.0353
RRIRKRPPRLPRPRPRPHGRPRP	0.239
RRIRFRPPRLPRPRPRPIALPRP	-0.222
RRIRDRPPRLPRPRPRPIFQPRP	0.242
RRIRCRPPRLPRPRPRPNHVPRP	-0.248
RRIRPRPPRLPRPRPRPNAYPRP	-0.0709
RRIRHRPPRLPRPRPRPSSHPRP	-1.3
RRIRLRPPRLPRPRPRPMLQPRP	-0.0201
RRIRTRPPRLPRPRPRPLHIPRP	0.0174
RRIRYRPPRLPRPRPRPCFDPRP	-0.808
RRIRDRPPRLPRPRPRPCAYPRP	0.297
RRIRARPPRLPRPRPRPEWQPRP	0.105
RRIRTRPPRLPRPRPRPHNKPRP	-0.702
RRIRQRPPRLPRPRPRPCRMPRP	-0.126
RRIRWRPPRLPRPRPRPCHQPRP	-0.0867
RRIRPRPPRLPRPRPRPWQGPRP	-0.00211
RRIRVRPPRLPRPRPRPRMIPRP	0.224
RRIRARPPRLPRPRPRPACNPRP	0.089
RRIRWRPPRLPRPRPRPQANPRP	0.395
RRIRDRPPRLPRPRPRPFGGPRP	-0.0275
RRIRERPPRLPRPRPRPKSYPRP	-0.0792
RRIRWRPPRLPRPRPRPDELPRP	0.402

Sequence	shrunken log2 fold change
RRIRRRPPRLPRPRPRPGAFPRP	0.539
RRIRGRPPRLPRPRPRPSHPPRP	0.372
RRIRFRPPRLPRPRPRPNMYPRP	-0.712
RRIRNRPPRLPRPRPRPRHHPRP	-0.246
RRIRHRPPRLPRPRPRPITAPRP	-0.303
RRIRGRPPRLPRPRPRPLKMPRP	0.27
RRIRFRPPRLPRPRPRPYGRPRP	-0.0926
RRIRLRPPRLPRPRPRPETPPRP	0.178
RRIRYRPPRLPRPRPRPVNQPRP	-0.058
RRIRDRPPRLPRPRPRPLTRPRP	-0.00589
RRIRERPPRLPRPRPRPHKLPRP	-0.635
RRIRKRPPRLPRPRPRPRPNPRP	0.42
RRIRIRPPRLPRPRPRPKVKPRP	-0.127
RRIRSRPPRLPRPRPRPNLVPRP	-0.0453
RRIRFRPPRLPRPRPRPWYCPRP	-0.706
RRIRERPPRLPRPRPRPITYPRP	-0.546
RRIRARPPRLPRPRPRPEYLPRP	-0.00441
RRIRKRPPRLPRPRPRPHEFPRP	-0.0156
RRIRERPPRLPRPRPRPLLCPRP	-0.183
RRIRKRPPRLPRPRPRPTFLPRP	0.228
RRIRMRPPRLPRPRPRPNSKPRP	-0.129
RRIRCRPPRLPRPRPRPQVIPRP	-0.386
RRIRVRPPRLPRPRPRPYHKPRP	-0.0829

Sequence	shrunken log2 fold change
RRIRERPPRLPRPRPRPAIRPRP	-0.0312
RRIRHRPPRLPRPRPRPRDWPRP	0.645
RRIRYRPPRLPRPRPRPMTKPRP	0.0153
RRIRYRPPRLPRPRPRPSPQPRP	-0.195
RRIRARPPRLPRPRPRPRMHPRP	0.324
RRIRTRPPRLPRPRPRPQVIPRP	-0.232
RRIRDRPPRLPRPRPRPEGVPRP	0.166
RRIRIRPPRLPRPRPRPNWRPRP	0.0227
RRIRIRPPRLPRPRPRPMQMPRP	-0.52
RRIRVRPPRLPRPRPRPFIEPRP	-0.468
RRIRCRPPRLPRPRPRPYAPPRP	-0.412
RRIRNRPPRLPRPRPRPINIPRP	0.00587
RRIRVRPPRLPRPRPRPCECPRP	0.00846
RRIRLRPPRLPRPRPRPALKPRP	0.489
RRIRARPPRLPRPRPRPGEDPRP	0.814
RRIRKRPPRLPRPRPRPYWAPRP	-0.448
RRIRSRPPRLPRPRPRPWREPRP	0.0924
RRIRRRPPRLPRPRPRPFTRPRP	-0.0292
RRIRARPPRLPRPRPRPVDYPRP	0.197
RRIRQRPPRLPRPRPRPCNDPRP	-0.374
RRIRFRPPRLPRPRPRPWQNPRP	-0.00226
RRIRFRPPRLPRPRPRPCNHPRP	-0.41

From the supplement of paper PMC9112550, “Optimization of the antimicrobial peptide Bac7 by deep mutational scanning” (BMC Biology, 2022)
